Paper PMC12346409, “Amphiphilic Oligonucleotide Derivatives as a Tool to Study DNA Repair Proteins”

Key:
Ku antigen (Ku70/Ku80) = Ku antigen (Ku70/Ku80) (UniProt P12956;P13010 1-609;1-732); assay: photo-cross-linking; 100 nM DNA, 100 nM protein; Ku70 and Ku80 labelled; EMSA: 50 mM Tris-HCl pH 8.0, 20 mM NaCl, 0.25 mM EDTA, 5% glycerol, 0.025% NP-40, 37 °C 20 min; 8% PAAG, 0.5x TBE, 10 °C; conditions: copies: 1;1; nicked duplex, blunt ends, strands 1 and 2 paired to strand 3
PARP1 [1] = biological target: T1, PARP1 (human, UniProt P09874 1-1014); assay: photo-cross-linking; 100 nM DNA, 100 nM protein; EMSA: 50 mM Tris-HCl pH 8.0, 20 mM NaCl, 0.25 mM EDTA, 5% glycerol, 0.025% NP-40, 37 °C 20 min; 8% PAAG, 0.5x TBE, 10 °C; conditions: protein: recombinant; nicked duplex, blunt ends, strands 1 and 2 paired to strand 3
PARP1 [2] = biological target: T1, PARP1; assay: photo-cross-linking; no NAD+; 200 nM PARP1, 100 nM DNA; EMSA: 50 mM Tris-HCl pH 8.0, 20 mM NaCl, 0.25 mM EDTA, 5% glycerol, 0.025% NP-40, 37 °C 20 min; 8% PAAG, 0.5x TBE, 10 °C; conditions: protein: recombinant; label: 5'-32P; 5' overhang 4 nt on strand 1; other end blunt
PARP2 = PARP2 (human, UniProt Q9UGN5 1-583); assay: photo-cross-linking; no NAD+; 200 nM PARP2, 100 nM DNA; EMSA: 50 mM Tris-HCl pH 8.0, 20 mM NaCl, 0.25 mM EDTA, 5% glycerol, 0.025% NP-40, 37 °C 20 min; 8% PAAG, 0.5x TBE, 10 °C; conditions: protein: recombinant; label: 5'-32P; 5' overhang 4 nt on strand 1; other end blunt
PARP3 = biological target: T2, PARP3 (UniProt Q9Y6F1 1-533); assay: EMSA; 10 nM DNA, up to 10-fold PARP3 excess; EMSA: 50 mM Tris-HCl pH 8.0, 20 mM NaCl, 0.25 mM EDTA, 5% glycerol, 0.025% NP-40, 37 °C 20 min; 8% PAAG, 0.5x TBE, 10 °C; conditions: protein: recombinant; label: 5'-32P on O1-Pho strand; 5' overhang 5 nt on strand 1 as printed; other end blunt
T2 sequence: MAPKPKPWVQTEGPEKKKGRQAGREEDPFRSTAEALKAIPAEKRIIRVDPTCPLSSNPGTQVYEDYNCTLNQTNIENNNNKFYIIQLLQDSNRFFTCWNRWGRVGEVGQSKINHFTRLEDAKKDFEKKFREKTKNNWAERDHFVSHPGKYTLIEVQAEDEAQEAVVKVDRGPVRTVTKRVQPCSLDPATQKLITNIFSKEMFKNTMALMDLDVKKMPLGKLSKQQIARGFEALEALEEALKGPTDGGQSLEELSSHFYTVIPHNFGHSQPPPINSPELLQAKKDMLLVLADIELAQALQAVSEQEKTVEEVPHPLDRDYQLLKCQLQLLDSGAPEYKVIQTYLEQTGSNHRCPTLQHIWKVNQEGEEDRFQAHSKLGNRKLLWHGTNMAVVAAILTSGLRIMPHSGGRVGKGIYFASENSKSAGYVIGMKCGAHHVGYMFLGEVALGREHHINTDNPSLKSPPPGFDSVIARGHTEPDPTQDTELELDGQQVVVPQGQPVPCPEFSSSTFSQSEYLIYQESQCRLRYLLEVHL

T1 sequence (P09874 whole entry): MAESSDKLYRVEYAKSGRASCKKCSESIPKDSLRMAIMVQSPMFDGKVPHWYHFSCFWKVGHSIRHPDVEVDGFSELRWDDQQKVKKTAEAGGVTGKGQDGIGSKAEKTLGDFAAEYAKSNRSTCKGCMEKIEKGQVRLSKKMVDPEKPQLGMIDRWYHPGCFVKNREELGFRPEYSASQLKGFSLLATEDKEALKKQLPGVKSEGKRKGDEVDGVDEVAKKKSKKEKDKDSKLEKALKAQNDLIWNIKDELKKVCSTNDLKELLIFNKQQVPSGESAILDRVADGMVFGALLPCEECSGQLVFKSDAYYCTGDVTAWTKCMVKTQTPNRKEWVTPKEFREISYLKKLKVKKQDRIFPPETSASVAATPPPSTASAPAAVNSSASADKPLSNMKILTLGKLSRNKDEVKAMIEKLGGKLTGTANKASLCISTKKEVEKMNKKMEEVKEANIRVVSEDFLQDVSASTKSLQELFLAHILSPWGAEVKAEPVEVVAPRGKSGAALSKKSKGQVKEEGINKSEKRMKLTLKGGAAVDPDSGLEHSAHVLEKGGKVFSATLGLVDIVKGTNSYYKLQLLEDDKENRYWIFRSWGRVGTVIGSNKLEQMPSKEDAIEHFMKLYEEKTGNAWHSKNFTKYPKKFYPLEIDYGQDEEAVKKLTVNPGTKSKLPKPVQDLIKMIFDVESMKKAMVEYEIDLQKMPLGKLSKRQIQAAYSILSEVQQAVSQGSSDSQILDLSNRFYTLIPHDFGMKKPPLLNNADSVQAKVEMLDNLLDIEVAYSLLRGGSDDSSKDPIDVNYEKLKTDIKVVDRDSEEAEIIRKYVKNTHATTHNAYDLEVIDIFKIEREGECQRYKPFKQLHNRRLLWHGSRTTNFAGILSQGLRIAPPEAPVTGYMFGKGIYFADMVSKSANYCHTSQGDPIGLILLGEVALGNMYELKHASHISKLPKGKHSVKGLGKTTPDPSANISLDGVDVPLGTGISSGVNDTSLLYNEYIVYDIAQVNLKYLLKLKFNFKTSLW
Ku antigen (Ku70/Ku80), sequence (P12956 whole entry, chain 1 of 2): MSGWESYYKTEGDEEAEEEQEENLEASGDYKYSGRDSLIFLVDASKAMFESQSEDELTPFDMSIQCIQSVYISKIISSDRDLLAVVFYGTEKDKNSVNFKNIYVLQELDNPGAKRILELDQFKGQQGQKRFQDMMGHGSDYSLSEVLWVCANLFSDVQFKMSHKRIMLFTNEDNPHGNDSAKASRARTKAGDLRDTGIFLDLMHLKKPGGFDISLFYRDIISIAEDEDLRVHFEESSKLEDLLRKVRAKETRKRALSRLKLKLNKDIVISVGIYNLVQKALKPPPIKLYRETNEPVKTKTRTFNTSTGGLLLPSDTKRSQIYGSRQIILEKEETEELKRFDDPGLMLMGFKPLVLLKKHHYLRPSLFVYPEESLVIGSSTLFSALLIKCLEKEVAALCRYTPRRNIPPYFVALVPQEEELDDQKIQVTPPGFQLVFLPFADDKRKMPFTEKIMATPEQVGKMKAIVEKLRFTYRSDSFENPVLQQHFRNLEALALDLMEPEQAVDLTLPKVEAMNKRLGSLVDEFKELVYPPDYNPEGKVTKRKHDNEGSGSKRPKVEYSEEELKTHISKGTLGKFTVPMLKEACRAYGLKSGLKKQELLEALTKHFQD
Ku antigen (Ku70/Ku80), sequence (P13010 whole entry, chain 2 of 2): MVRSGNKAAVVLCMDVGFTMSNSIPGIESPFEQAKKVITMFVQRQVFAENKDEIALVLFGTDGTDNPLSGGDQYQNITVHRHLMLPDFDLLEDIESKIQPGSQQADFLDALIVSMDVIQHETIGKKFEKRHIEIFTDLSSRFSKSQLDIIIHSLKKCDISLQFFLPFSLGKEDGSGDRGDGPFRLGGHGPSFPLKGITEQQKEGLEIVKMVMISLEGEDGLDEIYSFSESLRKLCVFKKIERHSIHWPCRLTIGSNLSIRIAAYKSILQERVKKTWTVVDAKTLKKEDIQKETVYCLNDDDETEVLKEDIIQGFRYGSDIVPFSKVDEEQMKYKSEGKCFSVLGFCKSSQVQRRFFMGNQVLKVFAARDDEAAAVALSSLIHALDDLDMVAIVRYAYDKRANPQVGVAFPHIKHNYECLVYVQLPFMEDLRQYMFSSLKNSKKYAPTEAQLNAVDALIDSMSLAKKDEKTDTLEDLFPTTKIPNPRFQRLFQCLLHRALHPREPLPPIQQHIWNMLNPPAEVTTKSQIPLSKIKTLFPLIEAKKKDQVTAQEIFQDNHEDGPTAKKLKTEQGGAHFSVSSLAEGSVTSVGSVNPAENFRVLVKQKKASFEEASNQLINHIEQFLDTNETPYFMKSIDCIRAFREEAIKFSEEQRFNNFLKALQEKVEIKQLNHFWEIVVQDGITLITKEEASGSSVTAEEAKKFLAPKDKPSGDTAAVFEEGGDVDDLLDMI
PARP2, sequence (Q9UGN5 whole entry): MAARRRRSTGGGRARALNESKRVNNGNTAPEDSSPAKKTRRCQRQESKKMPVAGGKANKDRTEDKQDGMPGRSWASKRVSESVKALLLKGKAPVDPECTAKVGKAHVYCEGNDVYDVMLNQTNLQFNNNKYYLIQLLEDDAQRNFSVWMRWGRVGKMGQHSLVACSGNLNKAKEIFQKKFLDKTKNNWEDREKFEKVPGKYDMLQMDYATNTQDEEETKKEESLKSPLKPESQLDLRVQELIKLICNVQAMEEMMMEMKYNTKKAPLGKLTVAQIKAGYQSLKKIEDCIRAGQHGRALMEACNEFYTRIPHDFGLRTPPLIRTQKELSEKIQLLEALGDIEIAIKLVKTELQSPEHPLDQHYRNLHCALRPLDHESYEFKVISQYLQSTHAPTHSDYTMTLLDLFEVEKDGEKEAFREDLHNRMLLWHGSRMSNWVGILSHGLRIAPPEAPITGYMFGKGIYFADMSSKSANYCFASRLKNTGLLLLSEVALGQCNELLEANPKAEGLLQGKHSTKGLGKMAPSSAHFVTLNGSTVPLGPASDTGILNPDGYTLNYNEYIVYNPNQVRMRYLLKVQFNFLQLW

B1: Pho-dRP (dsDNA)
DNA 1: GGCGACTAAGCCGGGC
DNA 2: AACGCCAGGGCCTCCC
DNA 3: GGGAGGCCCTGGCGTTGCCCGGCTTAGTCGCC
modifications: 3'-terminal FAP-dCMP on strand 1; 5'-dRP on strand 2
B1: binds (Ku antigen (Ku70/Ku80)); binds (PARP1 [1]).

B2: Pho-DNA-R (dsDNA)
DNA 1: TCCTGACATACTTGATACTTAGACATTCTT
DNA 2: AAGAATGTCTAAGTATCAAGTATGTC
modifications: 3'-terminal FAP-dCMP (photoactivatable C) on strand 2
B2: binds (PARP1 [2]); binds (PARP2).

B3: DNA-R (EMSA, O-R/O1-Pho) (dsDNA)
DNA 1: TCCTGACATACTTGATACTTAGACATTCTT
DNA 2: AAGAATGTCTAAGTATCAAGTATGT
B3: no binding (PARP3).
